# Reference: patent US20260232801A1 (published 2026)
# Where a chain is given by its changes, count along the chain named.
# T1: TP53 wild-type peptide on HLA-A*02:01 (human)
# T1 peptide: HMTEVVRRC
# T2: TP53 R175H peptide on HLA-A*02:01 (human)
# T2 peptide: HMTEVVRHC
# B1: TCR 4A (TCR, V domains shown)
# Valpha: AQTVTQSQPEMSVQEAETVTLSCTYDTSESNYYLFWYKQPPSRQMILVIRQEAYKQQNATENRFSVNFQKAAKSFSLKISDSQLGDTAMYFCAFMKWQGGSEKLVFGKGTKLTVNP
# Vbeta: DTAVSQTPKYLVTQMGNDKSIKCEQNLGHDTMYWYKQDSKKFLKIMFSYNNKELIINETVPNRFSPKSPDKAHLNLHINSLELGDSAVYFCASSQALAGEVDTQYFGPGTRLTVL
# B2: TCR 1B (TCR, V domains shown)
# Valpha: AQKITQTQPGMFVQEKEAVTLDCTYDTSDPSYGLFWYKQPSSGEMIFLIYQGSYDQQNATEGRYSLNFQKARKSANLVISASQLGDSAMYFCAMREGFSGGYNKLIFGAGTRLAVHP
# Vbeta: DAGVTQSPTHLIKTRGQQVTLRCSPISGHKSVSWYQQVLGQGPQFIFQYYEKEERGRGNFPDRFSARQFPNYSSELNVNALLLGDSALYLCASSDDTGTTKSSGANVLTFGAGSRLTVL
# B3: TCR 7A (TCR, V domains shown)
# Valpha: AQKVTQAQTEISVVEKEDVTLDCVYETRDTTYYLFWYKQPPSGELVFLIRRNSFDEQNEISGRYSWNFQKSTSSFNFTITASQVVDSAVYFCALRNSGNTPLVFGKGTRLSVIA
# Vbeta: DSGVTQTPKHLITATGQRVTLRCSPRSGDLSVYWYQQSLDQGLQFLIQYYNGEERAKGNILERFSAQQFPDLHSELNLSSLELGDSALYFCASSVDWVQETQYFGPGTRLLVL
# B4: TCR 1A (TCR, V domains shown)
# Valpha: SQQGEEDPQALSIQEGENATMNCSYKTSINNLQWYRQNSGRGLVHLILIRSNEREKHSGRLRVTLDTSKKSSSLLITASRAADTASYFCATGSNYGGSQGNLIFGKGTKLSVKP
# Vbeta: EAGVAQSPRYKIIEKRQSVAFWCNPISGHATLYWYQQILGQGPKLLIQFQNNGVVDDSQLPKDRFSAERLKGVDSTLKIQPAKLEDSAVYLCASSLDYGSSYEQYFGPGTRLTVT
# B5: TCR 3B (TCR, V domains shown)
# Valpha: AQKITQTQPGMFVQEKEAVTLDCTYDTSDQSYGLFWYKQPSSGEMIFLIYQGSYDEQNATEGRYSLNFQKARKSANLVISASQLGDSAMYFCAMREGRGRRALTFGSGTRLQVQP
# Vbeta: ETGVTQTPRHLVMGMTNKKSLKCEQHLGHNAMYWYKQSAKKPLELMFVYSLEERVENNSVPSRFSPECPNSSHLFLHLHTLQPEDSALYLCASSQDTAWDSGGETDTQYFGPGTRLTVL
# B6: TCR 3C (TCR, V domains shown)
# Valpha: GEDVEQSLFLSVREGDSSVINCTYTDSSSTYLYWYKQEPGAGLQLLTYIFSNMDMKQDQRLTVLLNKKDKHLSLRIADTQTGDSAIYFCAEGYGGKLIFGQGTELSVKP
# Vbeta: GAGVSQTPSNKVTEKGKYVELRCDPISGHTALYWYRQSLGQGPEFLIYFQGTGAADDSGLPNDRFFAVRPEGSVSTLKIQRTERGDSAVYLCASSSKTGVVGEQFFGPGTRLTVL
# B7: TCR 8A (TCR, V domains shown)
# Valpha: AQSVAQPEDQVNVAEGNPLTVKCTYSVSGNPYLFWYVQYPNRGLQFLLKYITGDNLVKGSYGFEAEFNKSQTSFHLKKPSALVSDSALYFCAVRAPGNTPLVFGKGTRLSVIA
# Vbeta: DTAVSQTPKYLVTQMGNDKSIKCEQNLGHDTMYWYKQDSKKFLKIMFSYNNKELIINETVPNRFSPKSPDKAHLNLHINSLELGDSAVYFCASSQDLGFDEKLFFGSGTQLSVL
# B8: TCR 7B (TCR, V domains shown)
# Valpha: DAKTTQPTSMDCAEGRAANLPCNHSTISGNEYVYWYRQIHSQGPQYIIHGLKNNETNEMASLIITEDRKSSTLILPHATLRDTAVYYCIVPRGFSNTGKLIFGQGTTLQVKP
# Vbeta: GAVVSQHPSRVICKSGTSVKIECRSLDFQATTMFWYRQFPKQSLMLMATSNEGSKATYEQGVEKDKFLINHASLTLSTLTVTSAHPEDSSFYICSASESLALASEQYFGPGTRLTVT
# B9: TCR 1C (TCR, V domains shown)
# Valpha: DQQVKQNSPSLSVQEGRISILNCDYTNSMFDYFLWYKKYPAEGPTFLISISSIKDKNEDGRFTVFLNKSAKHLSLHIVPSQPGDSAVYFCAATVGLAGNMLTFGGGTRLMVKP
# Vbeta: DSGVTQTPKHLITATGQRVTLRCSPRSGDLSVYWYQQSLDQGLQFLIQYYNGEERAKGNILERFSAQQFPDLHSELNLSSLELGDSALYFCASSTPLSGSSTDTQYFGPGTRLTVL
# B10: TCR 1D (TCR, V domains shown)
# Valpha: EDQVTQSPEALRLQEGESSSLNCSYTVSGLRGLFWYRQDPGKGPEFLFTLYSAGEEKEKERLKATLTKKESFLHITAPKPEDSATYLCAVHSNYQLIWGAGTKLIIKP
# Vbeta: B9 Vbeta with Q48H, S98R, G99T, S100R, S101G
# B11: TCR 7D (TCR, V domains shown)
# Valpha: QKEVEQDPGPLSVPEGAIVSLNCTYSNSAFQYFMWYRQYSRKGPELLMYTYSSGNKEDGRFTAQVDKSSKYISLFIRDSQPSDSATYLCASSFSGYNKLIFGAGTRLAVHP
# Vbeta: B9 Vbeta with T95E, P96R, S98A, S100A, S101I, T102A
# B12: TCR 3A (TCR, V domains shown)
# Valpha: GEDVEQSLFLSVREGDSSVINCTYTDSSSTYLYWYKQEPGAGLQLLTYIFSNMDMKQDQRLTVLLNKKDKHLSLRIADTQTGDSAIYFCAEISANQAGTALIFGKGTTLSVSS
# Vbeta: DTGVSQNPRHKITKRGQNVTFRCDPISEHNRLYWYRQTLGQGPEFLTYFQNEAQLEKSRLLSDRFSAERPKGSFSTLEIQRTEQGDSAMYLCASSPLDSYQETQYFGPGTRLLVL
# Molecular target: T1, TP53 wild-type peptide on HLA-A*02:01
# Assay: cytokine release
row,binding result,Binder
1,no recognition,B1
2,no recognition,B2
3,no recognition,B3
4,no recognition,B4
5,no recognition,B5
6,no recognition,B6
7,no recognition,B7
8,no recognition,B8
9,no recognition,B9
10,no recognition,B10
11,no recognition,B11
12,no recognition,B12

# Molecular target: T2, TP53 R175H peptide on HLA-A*02:01
# Assay: multimer staining
row,binding result,Binder
1,recognises,B1
2,recognises,B2
3,recognises,B3
4,recognises,B4
5,recognises,B5
6,recognises,B6
7,recognises,B7
8,recognises,B8
9,recognises,B9
10,recognises,B10
11,recognises,B11
12,recognises,B12
